This note sets out measurements from paper PMC5562331, “The transcriptional regulator SsrB is involved in a molecular switch controlling virulence lifestyles of Salmonella”.

The target in this series is 6H-SsrBc (Salmonella enterica serovar Typhimurium, UniProt Q7CQM5 138-212). Kind of series: EMSA; 0-2 uM protein. To be noted: protein: recombinant; 5' overhang 4 nt at both ends. A general note: A gel shift assay detects complexes by their altered migration in electrophoresis.
Sequence of 6H-SsrBc (Q7CQM5 138-212): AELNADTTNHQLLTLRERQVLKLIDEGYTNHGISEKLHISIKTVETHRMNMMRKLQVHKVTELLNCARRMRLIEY

B1: hilA -35+6 (dsDNA)
DNA 1: GATCCGCATTTACACCCCAAAAAAATGCAGTAAGATAGCTACAAA
DNA 2: AGCTTTTGTAGCTATCTTACTGCATTTTTTTGGGGTGTAAATGCG
With B1, the binding result is recorded as “no binding”.

B2: hilD -37+6 (dsDNA)
DNA 1: GATCCGCATTTACAACTCAGATTTTTTCAGTAGGATACCAGTAAGGA
DNA 2: AGCTTCCTTACTGGTATCCTACTGAAAAAATCTGAGTTGTAAATGCG
On to B2, for which the binding result is listed as “binds”.
